pKd: −log10 of the molar value.
Columns and labels:
[1] = target: Drosophila Plk4 cryptic polo box (DmPlk4 CPB), aa 383-601 (Drosophila) (UniProt O97143); assay: MST
[2] = target: ZYG-1 cryptic polo box (CPB), aa 338-564 (C. elegans) (UniProt Q9GT24); assay: MST
ZYG-1 cryptic polo box (CPB), aa 338-564 (C. elegans), sequence (Q9GT24 338-564): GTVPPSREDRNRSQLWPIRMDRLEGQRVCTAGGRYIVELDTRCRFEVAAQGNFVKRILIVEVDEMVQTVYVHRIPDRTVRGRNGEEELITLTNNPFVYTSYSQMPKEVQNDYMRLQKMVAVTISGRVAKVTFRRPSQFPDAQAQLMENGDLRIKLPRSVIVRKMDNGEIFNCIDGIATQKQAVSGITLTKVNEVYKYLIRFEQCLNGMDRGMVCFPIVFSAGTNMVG

Drosophila Plk4 cryptic polo box (DmPlk4 CPB), aa 383-601 (Drosophila), sequence (O97143 383-601): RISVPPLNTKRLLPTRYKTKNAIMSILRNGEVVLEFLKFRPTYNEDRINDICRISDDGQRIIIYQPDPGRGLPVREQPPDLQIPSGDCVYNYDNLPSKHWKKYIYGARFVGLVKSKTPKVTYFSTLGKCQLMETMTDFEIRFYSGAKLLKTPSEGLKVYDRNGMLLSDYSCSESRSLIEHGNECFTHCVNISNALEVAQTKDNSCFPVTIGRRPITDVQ

For “MmAsl acidic region (MmAsl AR), MST ligand (from UniProt A2AUM9 1-1736) (domain or fragment)”, the pKd [1] was 6.14.

“MmSPD-2 acidic region (MmSPD-2 AR), MST ligand (from UniProt E9Q4Y4 1-2514) (domain or fragment)” showed a pKd [1] of 6.28 and a pKd [2] of 5.29.

Source: paper PMC4126857
